The target of the experiment is N-protein of the wild-type Cne PRP8 S0 split mini-intein with C1A, maltose-binding protein fused to N-intein (MI^A N) (Cryptococcus neoformans). Briefly: SPR; Biacore T100; N-proteins (WTNa, ENa) immobilised on a CM5 chip; C-terminal fusion proteins flowed at different concentrations in 10 mM HEPES, 150 mM NaCl, 1 mM EDTA, pH 7.4; KD = kd/ka. (In general: In SPR one partner is held on a chip, and binding of the other changes the refractive index at the surface.)

On to “C-protein of the wild-type Cne PRP8 S0 split mini-intein with N185A, C-intein fused to thioredoxin (I^A CT) (domain or fragment)”, for which the Ka came to 608000 M⁻¹; the Kd (as a rule, a measure of binding affinity in units of concentration) came out at 1.65 µM; the off-rate (koff) (in general, the rate constant with which the complex falls apart) is 0.0082 s⁻¹; the kon (as a rule, the second-order rate constant of association) was 4990 M⁻¹ s⁻¹.
